Paper PMC5748837, “Biochemical characterization of INTS3 and C9ORF80, two subunits of hNABP1/2 heterotrimeric complex in nucleic acid binding” (Biochemical Journal, 2017)

B1: Human nucleic acid-binding protein 2 (hNABP2) (natural protein, UniProt Q9BQ15 1-211, looked up)
chain: MTTETFVKDIKPGLKNLNLIFIVLETGRVTKTKDGHEVRTCKVADKTGSINISVWDDVGNLIQPGDIIRLTKGYASVFKGCLTLYTGRGGDLQKIGEFCMVYSEVPNFSEPNPEYSTQQAPNKAVQNDSNPSASQPTTGPSAASPASENQNGNGLSAPPGPGGGPHPPHTPSHPPSTRITRSQPNHTPAGPPGPSSNPVSNGKETRRSSKR
notes: also called hSSB1; source: also co-expressed (pET29a) with GST-INTS3 and C9ORF80 in E. coli Rosetta 2, in lysate
B2: Human nucleic acid-binding protein 1 (hNABP1) (natural protein, UniProt Q96AH0 1-204, looked up)
chain: MNRVNDPLIFIRDIKPGLKNLNVVFIVLEIGRVTKTKDGHEVRSCKVADKTGSITISVWDEIGGLIQPGDIIRLTRGYASMWKGCLTLYTGRGGELQKIGEFCMVYSEVPNFSEPNPDYRGQQNKGAQSEQKNNSMNSNMGTGTFGPVGNGVHTGPESREHQFSHAGRSNGRGLINPQLQGTASNQTVMTTISNGRDPRRAFKR
notes: also called hSSB2; source: also co-expressed (pET29a) with GST-INTS3 and C9ORF80 in E. coli Rosetta 2, in lysate
B3: C9ORF80, His-tagged (natural protein, human, UniProt Q9NRY2 1-104, looked up)
chain: MAANSSGQGFQNKNRVAILAELDKEKRKLLMQNQSSTNHPGASIALSRPSLNKDFRDHAEQQHIAAQQKAALQHAHAHSSGYFITQDSAFGNLILPVLPRLDPE
notes: C9ORF80, human cDNA clone; pET28a, NcoI/XhoI sites (this would give a C-terminal His tag); the printed masses fit the whole 104-residue protein; also called C9OFR80; source: peak 2); also co-expressed with GST-INTS3 and hNABP1/2 in E. coli Rosetta 2, in lysate

biological target: T1, GST-tagged N-terminal region of INTS3 (GST-INTS3^N, 1-513 amino acids) (human, UniProt Q68E01 1-513); assay: pull-down; GST-INTS3^FL, -INTS3^N or -INTS3^C incubated with hNABP1/2 or C9ORF80 at 4 C for 1 h, then glutathione-agarose beads 1 h; eluted with 10 mM glutathione; Western blot; conditions: both partners purified
T1 construct: Integrator complex subunit 3 (INTS3), human, N-terminal region, residues 1-513; pGEX-6P-1; source: E. coli Rosetta 2, purified (glutathione sepharose beads); not shown: GST, N-terminal, kept
T1 sequence (Q68E01 1-513): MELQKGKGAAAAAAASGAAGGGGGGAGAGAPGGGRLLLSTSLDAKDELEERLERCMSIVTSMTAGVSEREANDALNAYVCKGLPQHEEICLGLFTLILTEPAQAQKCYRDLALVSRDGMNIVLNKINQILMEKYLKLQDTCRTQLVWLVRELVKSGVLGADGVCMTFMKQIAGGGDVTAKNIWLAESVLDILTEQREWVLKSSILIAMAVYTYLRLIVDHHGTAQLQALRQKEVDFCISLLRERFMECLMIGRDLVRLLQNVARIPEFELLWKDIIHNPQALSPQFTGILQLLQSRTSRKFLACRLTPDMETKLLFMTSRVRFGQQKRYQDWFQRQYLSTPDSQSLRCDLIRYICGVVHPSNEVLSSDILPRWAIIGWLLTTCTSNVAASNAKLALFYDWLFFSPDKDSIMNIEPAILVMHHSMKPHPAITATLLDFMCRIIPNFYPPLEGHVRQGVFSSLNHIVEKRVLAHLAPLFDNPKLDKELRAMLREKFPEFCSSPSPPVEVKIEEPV

binding result | Binder
binds | B1
binds | B2
binds | B3
